Results taken from publication doi:10.1101/2025.02.24.640013, “Exploration of the influence of environmental changes on the conformational and amyloidogenic landscapes of the zinc finger protein DPF3a by combining biophysical and molecular dynamics approaches” (bioRxiv, 2025).

Target: the molecule itself
Experiment: negative-stain TEM + far-UV CD + autofluorescence of amyloid fibril formation; tag-free DPF3a alone, ~4.5 uM (0.18 mg/mL), incubated at ~25 °C for seven days in 50 mM Tris-HCl pH 8, 150 mM NaCl (reference); also at pH 12 in 150 mM NaCl and at pH 8 in 300 and 500 mM NaCl, where fibrils formed later, shorter and in lower number

B1: double PHD fingers 3 (DPF3) protein, isoform DPF3a, full-length (natural protein, human, UniProt Q92784-2 1-357, looked up)
chain: MATVIHNPLKALGDQFYKEAIEHCRSYNSRLCAERSVRLPFLDSQTGVAQNNCYIWMEKRHRGPGLAPGQLYTYPARCWRKKRRLHPPEDPKLRLLEIKPEVELPLKKDGFTSESTTLEALLRGEGVEKKVDAREEESIQEIQRVLENDENVEEGNEEEDLEEDIPKRKNRTRGRARGSAGGRRRHDAASQEDHDKPYVCDICGKRYKNRPGLSYHYAHTHLASEEGDEAQDQETRSPPNHRNENHRPQKGPDGTVIPNNYCDFCLGGSNMNKKSGRPEELVSCADCGRSAHLGGEGRKEKEAAAAARTTEDLFGSTSESDTSTFHGFDEDDLEEPRSCRGRRSGRGSPTADKKGSC
notes: Human DPF3, isoform DPF3a, full length; molecular mass 40244 Da; Metalloprotein with a C2H2 zinc finger; also called full-length DPF3a; source: E. coli BL21 Rosetta (DE3), purified (GSTrap FF, on-column TEV cleavage of the GST tag); not shown: GST, N-terminal, cleaved
  binding result: binds
